{
  "source": "paper PMC11879436",
  "about": "“VvARF19 represses VvLBD13-mediated cell wall degradation to delay softening of grape berries”",
  "binders": {"B1": {"name": "VvXTH10 promoter probe (dsDNA)", "DNA 1": "TCGAGTGTTGCGGCTTTGAAAAATA", "DNA 2": "TATTTTTCAAAGCCGCAACACTCGA"}, "B2": {"name": "VvEXPLA1 promoter probe (dsDNA)", "DNA 1": "AATAGAGAAGCCCACACGTGAGCAA", "DNA 2": "TTGCTCACGTGTGGGCTTCTCTATT"}},
  "biological_target": "T1, VvLBD13 (Vitis vinifera cv. Shine Muscat, UniProt D7SJL6 27-229)",
  "T1 sequence": "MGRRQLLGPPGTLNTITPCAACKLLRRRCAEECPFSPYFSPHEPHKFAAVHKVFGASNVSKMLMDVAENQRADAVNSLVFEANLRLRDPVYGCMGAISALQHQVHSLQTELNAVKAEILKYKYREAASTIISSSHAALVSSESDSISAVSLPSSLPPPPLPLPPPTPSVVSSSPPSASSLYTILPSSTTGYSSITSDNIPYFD",
  "test": "EMSA; with unlabeled cold probe competition; EMSA kit (Thermo 20148), 25 C, 30 min; buffer, salt and pH not stated",
  "settings": "protein: recombinant; tags: His (pET-32a(+)); chain copies: 2; label: 5' biotin; blunt",
  "data": [
    {"binder": "B1", "values": [
      {"measurement": "binding result", "value": "binds"}
    ]},
    {"binder": "B2", "values": [
      {"measurement": "binding result", "value": "binds"}
    ]}
  ]
}
